Laboratory results as given in US5770720.

Tests used:
[1] = target: LexADB/lamin C hybrid (Escherichia coli (strain K12)); assay: yeast two-hybrid, LexA DNA binding domain fusion against Gal4 activation domain vector alone
[2] = target: LexADB/WT-N (LexA DNA binding domain fused to residues 85-179 of human WT1) (human) (UniProt P19544); assay: as above
[3] = target: LexADB/WT-INS (containing residues 250-266 of WT1) (human) (UniProt P19544); assay: as above
[4] = target: LexADB/lamin C hybrid (Escherichia coli (strain K12)); assay: yeast two-hybrid, LexA DNA binding domain fusion against Gal4 activation domain fusion
[5] = target: LexADB/WT-N (LexA DNA binding domain fused to residues 85-179 of human WT1) (human) (UniProt P19544); assay: as above
[6] = target: WT1, Wilm's tumor suppressor gene product (full length) (human) (UniProt P19544)

Chain of hUBC-9 fused with the Gal4 activation domain (P63279 whole entry, the tested form may be a part): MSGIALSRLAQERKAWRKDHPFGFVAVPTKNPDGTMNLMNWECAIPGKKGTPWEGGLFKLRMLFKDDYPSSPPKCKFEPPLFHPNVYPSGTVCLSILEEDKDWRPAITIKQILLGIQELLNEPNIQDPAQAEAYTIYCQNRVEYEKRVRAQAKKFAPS
Chain of hUBC-9, human ubiquitin conjugating enzyme (P63279 whole entry): as the sequence (P63279 whole entry, the tested form may be a part) above

Gal4 activation domain vector alone (from UniProt P04386)
β-Galactosidase activity [1]: 0.3 units
β-Galactosidase activity [2]: 0.3 units
β-Galactosidase activity [3]: 0.2 units

hUBC-9 fused with the Gal4 activation domain
β-Galactosidase activity [4]: 1.5 units
β-Galactosidase activity [5]: 57.9 units

hUBC-9, human ubiquitin conjugating enzyme
relative CAT activity (PDGF A-chain promoter driven CAT reporter, 293 cells) (% relative activity) [6]: 2
